The record followed here is publication PMC8244865, “Recruitment of phospholipase Cγ1 to the non-structural membrane protein pK15 of Kaposi Sarcoma-associated herpesvirus promotes its Src-dependent phosphorylation” (PLoS Pathogens, 2021).

The test system of experiment [1] is full-length PLCγ1 R586L or R694L. Description: GST-pulldown, full-length PLCγ1 R586L or R694L. Type of experiment: binding. The note with it: phosphorylated; full-length PLCγ1, HEK 293T; versus WT. The method, then:
(§1) Fig 3 Contribution of individual PLCγ1 SH2 domains to the interaction with phosphorylated pK15. The pK15 CT fused to GST, its Y^481F mutant, or GST alone were bound to glutathione beads, phosphorylated in vitro (+) or left unphosphorylated (-), and a GST pulldown was performed 32h after transfection into HEK-293T cells of expression vectors for S-tagged full-length PLCγ1 (FL) (A) or PLCγ1 SA (B) containing the indicated mutations. (C) pK15 CT WT, its Y^481F mutant or GST were bound to glutathione beads, phosphorylated in vitro (+) or left unphosphorylated (-), and used for a GST pulldown assay 32h after transfecting HEK 293T cells with expression vectors for S-tagged individual PLCγ1 nSH2 or cSH2 domains. […]
(§2) HEK293T cells were washed once with cold PBS 30 hours after transfection, lysed in IP buffer (50 mM Tris pH7.6, 60 mM NaCl, 6.25 mM EDTA, 1% (v/v) glycerol, 0.04% (v/v) NP-40) on ice for 30 minutes, sonicated shortly and cleared by centrifugation for 10 minutes at 20.000g, 4°C. […] Beads were then washed 5 times in 500 μl IP buffer (or for purified proteins IP buffer with 200 mM NaCl), suspended in 10 μl of 5x Laemmli sample buffer (60 mM Tris pH6.8, 24% (v/v) glycerol, 2% (v/v) SDS, 5% (v/v) β-mercaptoethanol, 0.01% Bromphenol Blue) and analysed by western blot.

Experiment [2] concerns PLCγ1 cSH2 domain (vs nSH2 domain). Description: GST-pulldown, individual SH2 domains. Type of experiment: binding. To be noted: in vitro phosphorylated; S-tagged individual SH2 domains transfected in HEK 293. The method, then:
as §1, §2

Experiment [3] deals with PLCγ1 cSH2 domain. Nature of the experiment: AlphaLISA, isolated PLCγ1 cSH2. The class given is binding. The note with it: phosphorylated, 300 nM each protein, domain tested individually. The method, then: Fig 4 The PLCγ1 cSH2 domain is required for the binding of PLCγ1 to phosphorylated pK15 in vitro and may serve as a dominant-negative inhibitor. GST-fused pK15 cytoplasmic tail WT (A), or its truncated mutant N2 [51] (B), were phosphorylated in vitro by 2xStrep-Src and an AlphaLISA was performed with the indicated His-tagged fragments of PLCγ1. Mean and standard deviation from at least two independent experiments with two technical replicates each are depicted. GST fusion proteins of the N1 (C) or N2 (D) truncation mutants of the pK15 cytoplasmic tail were phosphorylated in vitro by 2xStrep-Src and their interaction with recombinant purified PLCγ1 tSH2 (tandem SH2) or SA (γ-specific array) domains was measured by AlphaLISA in the presence of increasing concentrations (300 nM, 600 nM, 900 nM, 1200 nM) of the purified PLCγ1 cSH2. […] After 48h lysates were collected and analysed by Western blot using an antibody to PLCγ1 pY^783 to assess the level of PLCγ1 phosphorylation. (F) The intensities of the pPLCγ1 bands shown in panel E were quantified by densitometry, normalized to the values obtained with the empty vector (EV) in the presence of pK15, and plotted as relative values. […]
His-tagged PLCγ1 (SA, tSH2 or the isolated SH2 domains) was incubated at room temperature with GST-tagged K15P or its mutants for 1 hour. […] Emission at 615 nm was detected on BioTek Synergy 2 plate reader.

The test system of experiment [4] is Src kinase. Description: in vitro phosphorylation of pK15 CT by Src. Type of experiment: biochemical. To be noted: human GST-6xHis Src or chicken 2xStrep Src. The source says:
We expressed and purified the pK15 cytoplasmic tail (pK15 CT) fused to GST at its N-terminal end in bacteria and phosphorylated it in vitro using a commercially obtained human GST-6xHis Src, or a recombinant chicken 2xStrep Src kinase expressed in insect cells. In parallel, the GST-pK15 CT domain carrying the Y^481F mutation, or GST protein alone, were subjected to the same procedure. […] Following in vitro phosphorylation, pK15 CT^WT and pK15 CT^Y481F were used to pull down transiently expressed (Fig 2A) or endogenous (Fig 2B) PLCγ1 from HEK 293 lysates.
The GST-fused cytoplasmic tail of pK15 (GST-pK15 CT) was in vitro phosphorylated by recombinant human GST-6xHis Src kinase (ActiveMotif, 0.4 μg/ml per kinase reaction, 10 minutes at 30°C), or a recombinant chicken 2xStrep-Src kinase (10 μg/ml per kinase reaction, 30 minutes at 25°C). GST-pK15 CT was used at 4.8 μM or 6 μM and 50 μl or 100 μl reaction volumes for AlphaLISA and 3–6 μl glutathione beads with K15 and 25 μl reaction volume for GST pulldown experiments. […]
Supplementary file ppat.1009635.s001.tif: S1 Fig Both pK15 Y^431 and Y^481 are phosphorylated by recombinant Src kinase. […] Proteins were then analysed by WB using an antibody to pTyr. […]

B1: pK15 CT^WT: pK15 cytoplasmic tail fused to GST at its N-terminal end, phosphorylated in vitro by Src (protein)
chain: SQLLNEVELQEVNRDPPNVFGYASILVSGAEESREPSPQPDQSGMSILRVDGGSAFRIDTAQAATQPTDDLYEEVLFPRN
modifications: tyrosine-phosphorylated in vitro by Src; sites not stated for this construct; left off: GST, N-terminal, kept
On to B1, for which the “binding of mutants (GST-pulldown)” value in experiment [1] is “moderately reduced binding”. The “preference between SH2 domains (GST-pulldown)” value in experiment [2] was “bound preferentially to the PLCγ1 cSH2 domain compared to its nSH2 domain”. For the same molecule, the “interaction (AlphaLISA)” value was “only the PLCγ1 cSH2 domain (and not the nSH2 domain) interacted” in experiment [3]; “did interact with the tSH2 and cSH2 domains” in experiment [3] (listed as pK15 CT^N2). Besides, the “pK15 bands detected after Src phosphorylation (pTyr Western blot)” value in experiment [4] was “a dominant (bottom) and a minor (top) pK15 band”.
